Where a chain is given by its changes, count along the chain named. Numbers in names are those of the source.

Substrate in this data set: CC(C)=CCC/C(C)=C/CC/C(C)=C/CO[P@@](=O)(O)OP(=O)(O)O
Nature of the data set: enzyme kinetics. In kind it is biochemical, Streptomyces venezuelae.

B1: DcS (dauc-8-en-11-ol synthase; formerly isodauc-8-en-11-ol synthase, IdS) (Streptomyces venezuelae ATCC 10712) (protein)
chain: MTVRAVELPQLWMPYPLRVNPYLSALREESETWAREMGMLGGEGPSARGAIWTRSQFHAMTVELLTAWTLPDASLAGLRLNHRFNIWALAWDDYFASTFKQTGDLPGALDFTARLHAFLRPEADARSPEPVNAVERGIADLQKHLFPPRLAHWRQEFNLALAHYIDAGVQELTNSRGGRVPHLIEYAPFRRESFAAHTAPYSVELATGARIPEQLRHTRTVHALLDAFMDVMGLANDVASYEREVHEERDVNNLVVVIGTSLGITLHQAVPAALHMVNARMRDFEHLRHHELPPLVDRFGLRPDEREELETWLGGAASFLSGLHAWYTGAPRYAPTDHSVPEQRQRGGSEGAADRHAPAASSLARGAEAQTCGPTASAGSA
notes: motifs: D92 in 92DDYFA, R190, N236 in 236NDVASYERE, H58, H197, Y241
The term Km denotes the concentration of substrate that gives half-maximal velocity. What is called kcat is the number of substrate molecules converted per active site and unit of time at saturation. As for B1, the Km was 2.90 ± 0.02 mM and the turnover number (kcat) worked out at 35.6 ± 2.9 s⁻¹.

B2: DcS (dauc-8-en-11-ol synthase; formerly isodauc-8-en-11-ol synthase, IdS) (Streptomyces venezuelae ATCC 10712; H197F/Y241F) (protein)
chain: B1 chain with H197F, Y241F
notes: motifs: D92 in 92DDYFA, R190, N236 in 236…, H58, H197, Y241
In the case of B2, the Km was 5.95 ± 0.02 mM and the kcat came out at 65.5 ± 8.6 s⁻¹.

Values taken from PMC8252471, “Rerouting and Improving Dauc‐8‐en‐11‐ol Synthase from Streptomyces venezuelae to a High Yielding Biocatalyst” (Chemistry (Weinheim an Der Bergstrasse, Germany), 2021).
